Measured values reported in publication PMC6009593 (Nucleic Acids Research, 2018).

B1: Pyrococcus furiosus Proliferating Cell Nuclear Antigen (PfuPCNA) (natural protein)
chain: MPFEIVFEGAKEFAQLIDTASKLIDEAAFKVTEDGISMRAMDPSRVVLIDLNLPSSIFSKYEVVEPETIGVNMDHLKKILKRGKAKDTLILKKGEENFLEITIQGTATRTFRVPLIDVEEMEVDLPELPFTAKVVVLGEVLKDAVKDASLVSDSIKFIARENEFIMKAEGETQEVEIKLTLEDEGLLDIEVQEETKSAYGVSYLSDMVKGLGKADEVTIKFGNEMPMQMEYYIRDEGRLTFLLAPRVEE

Experiments:
[1] = molecular target: B1; assay: SPR
[2] = molecular target: Pyrococcus furiosus Mre11–Rad50 complex, wild type, full length (PfuMR wt) (Pyrococcus furiosus, UniProt Q8U1N9 1-426; P58301 1-882); assay: SPR
Pyrococcus furiosus Mre11–Rad50 complex, wild type, full length (PfuMR wt), sequence (P58301 whole entry, one chain of several): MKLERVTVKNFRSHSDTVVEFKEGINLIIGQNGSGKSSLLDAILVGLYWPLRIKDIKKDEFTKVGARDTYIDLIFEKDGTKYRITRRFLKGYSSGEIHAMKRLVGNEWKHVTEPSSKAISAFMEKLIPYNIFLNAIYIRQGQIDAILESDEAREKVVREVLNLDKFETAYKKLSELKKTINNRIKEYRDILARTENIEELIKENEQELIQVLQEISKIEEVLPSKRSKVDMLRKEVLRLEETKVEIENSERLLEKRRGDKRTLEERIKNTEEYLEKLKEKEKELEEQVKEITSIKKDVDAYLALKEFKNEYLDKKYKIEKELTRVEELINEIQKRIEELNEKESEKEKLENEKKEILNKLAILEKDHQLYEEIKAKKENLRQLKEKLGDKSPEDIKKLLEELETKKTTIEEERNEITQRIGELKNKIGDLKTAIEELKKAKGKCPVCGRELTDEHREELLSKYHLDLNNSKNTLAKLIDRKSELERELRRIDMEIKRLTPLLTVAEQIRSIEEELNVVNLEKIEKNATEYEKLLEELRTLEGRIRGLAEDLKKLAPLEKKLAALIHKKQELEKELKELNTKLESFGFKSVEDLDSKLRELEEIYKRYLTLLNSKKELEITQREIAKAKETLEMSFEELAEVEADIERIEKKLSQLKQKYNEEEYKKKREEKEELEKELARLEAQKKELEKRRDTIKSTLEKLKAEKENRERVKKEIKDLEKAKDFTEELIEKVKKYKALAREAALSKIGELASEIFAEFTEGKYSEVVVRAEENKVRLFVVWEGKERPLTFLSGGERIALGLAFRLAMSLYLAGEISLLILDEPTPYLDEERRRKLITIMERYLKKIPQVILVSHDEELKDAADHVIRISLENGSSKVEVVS

Row | Kd [1] [nM] | Kd [2] [nM] | Binder
1 | 4050 |  | Ac-KKKRGTLDSWLGG-NH2 [PIP-like Mre11 peptide (PfuMre11 412–424)]
2 |  | ~4.07 | B1
